In US6884600B1, “Protein phosphatase-1 catalytic subunit interactions” (Medical Research Council London, priority 1996, dated 2005):

Test system: M21 subunit
Assay: Far Western blotting: interaction with the M21 subunit
Type: binding, chicken
Details: for recognised by digoxigenin-labelled M21 subunit in Far Western blotting: probe 0.2 μg/ml
Experimental: A) PP1M 5 μg (track 1), 10 μg bacterial extract containing M110-(R714-I1004) (track 2), MBP-M110-(R714-I004) 1 μg (track 3), MBP-M110-(R714-L934) 1 μg (track 4), MBP-M110-(K933-I1004) 1 μg (track 5), MBP 1 μg (track 6), M110-(M1-E309) 2 μg (lane 7) and M110-(M1-S477) 2 μg (track 8) were run on a 12% SDS/polyacrylamide gel and stained with Coomassie Blue. B) same as A) except that 10-fold less protein was electrophoresed and after transfer to nitrocellulose the proteins were probed with digoxigenin-labelled M21 subunit (0.2 μg/ml). C) same as B) except that, after electrophoresis, the proteins were transferred to nitrocellulose and probed with digoxigenin-labelled M21-(M1-L146) (0.2 μg/ml).
A) GST-M21 5 μg (track 1), M21 5 μg (track 2), M21-(M1-L146) 5 μg (track 3), M21-(M1-E110) 20 μg (track 4) and M21-(E110-K186) 5 μg (track 5) were run on 16.5% polyacrylamide gels and stained with Coomassie Blue. The marker proteins ovalbumin (43 kDa) and carbonic anhydrase (29 kDa) are indicated. B) GST-M21 0.5 μg (track 1), M21 0.5 μg (track 2), M21-M1-L146) 0.5 μg (track 3), M21-(M1-E110) 5 μg (track 4) and M21-(E110-K186) 5 μg (track 5) were electrophoresed as in A) and after transfer to nitrocellulose the blots were probed with digoxigenin-labelled MBP-M110-(K933-I1004) (0.2 μg/Ml). C) same as B) except that, after electrophoresis, the proteins were transferred to nitrocellulose and probed with digoxigenin-labelled M21 subunit (0.2 μg/ml).
PP1M (0.5 μAg) was electrophoresed on a 12% SDS/polyacrylamide gel, transferred to nitrocellulose and probed with digoxigenin-labelled M21 subunit (0.2 μg/ml) (track 1) or digoxigenin-labelled M21-(M1-L146) (0.2 μg/ml) (track 2). The positions of the M110 subunit, the M21 subunit and PP1c are marked.
Proteins were labelled with digoxigenin and Far Western analyses carried out as described, except that the digoxigenin-labelled probe was used at a concentration of 0.2 μg/ml instead of 2 μg/ml. SDS/polyacrylamide gel electrophoresis was carried out on 7.5-15% gels according to Laemmli and on 16.5% gels according to Schagger and von Jagow. Protein was estimated according to Bradford.

Sequence of M21 subunit (as listed by the source): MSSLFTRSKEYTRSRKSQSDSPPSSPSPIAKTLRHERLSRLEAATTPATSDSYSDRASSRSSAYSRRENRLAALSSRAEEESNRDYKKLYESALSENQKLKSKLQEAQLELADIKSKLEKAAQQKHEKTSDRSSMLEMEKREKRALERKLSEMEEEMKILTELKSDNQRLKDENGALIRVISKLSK

B1: MBP-M110-(R714-I1004): maltose binding protein fusion of M110-(R714-I1004) (protein)
chain: RSTRTREQENEEKEKEEKEKQDKEKQEEKKESETKDDDYRQRYSRTVEEPYHRYRPTSTSTSTSSTSSLSTSTSSLSSSSQLNRPNSLIGITSAYSRSGTKESEREGGKKEEEKEEDKSQPKSIRERRRPREKRRSTGVSFWTQDSDENEQEHQSDSEEGTNKKETQSDSLSRYDTGSLSVSSGDRYDSAQGRSGSQSYLEDRKPYCSRLEKEDSTDFKKLYEQILAENEKLKAQLHDTNMELTDLKLQLEKTTQRQERFADRSLLEMEKRVSGKSQYLLGGKKSSRKKDI
modifications: left off: large carriers
- digoxigenin-labelled probe recognises the full length M21 subunit and M21(M1-L146) in Far Western blotting: recognised

B2: M110-(R714-L934): chicken gizzard M110 fragment, residues 714-934 (protein)
chain: RSTRTREQENEEKEKEEKEKQDKEKQEEKKESETKDDDYRQRYSRTVEEPYHRYRPTSTSTSTSSTSSLSTSTSSLSSSSQLNRPNSLIGITSAYSRSGTKESEREGGKKEEEKEEDKSQPKSIRERRRPREKRRSTGVSFWTQDSDENEQEHQSDSEEGTNKKETQSDSLSRYDTGSLSVSSGDRYDSAQGRSGSQSYLEDRKPYCSRLEKEDSTDFKKLGTGRRFTTS
modifications: left off: large carriers
- recognised by digoxigenin-labelled M21 subunit in Far Western blotting: not

B3: MBP-M110-(R714-L934): maltose binding protein fusion of M110-(R714-L934) (protein)
chain: B2 chain
modifications: left off: large carriers
- digoxigenin-labelled probe recognises the full length M21 subunit and M21(M1-L146) in Far Western blotting: not

B4: M110 subunit: 110 kDa myofibrillar-binding subunit of PP1 (protein)
chain: MKMADAKQKRNEQLKRWIGSETDLEPPVVKRKKTKVKFDDGAVFLAACSSGDTEEVLRLLERGADINYANVDGLTALHQACIDDNVDMVKFLVENGANINQPDNEGWIPLHAAASCGYLDIAEYLISQGAHVGAVNSEGDTPLDIAEEEAMEELLQNEVNRQGVDIEAARKEEERIMLRDARQWLNSGHINDVRHAKSGGTALHVAAAKGYTEVLKLLIQARYDVNIKDYDGWTPLHAAAHWGKEEACRILVENLCDMEAVNKVGQTAFDVADEDILGYLEELQKKQNLLHSEKREKKSPLIESTANLDNNQTQKTFKNKETLIMEQEKNASSIESLEHEKADEEEEGKKDESSCSSEEEEDDDSESEAETDKAKTLANANTTSTQSASMTAPSVAGGQGTPTSPLKKFPTSTTKVSPKEEERKDESPASWRLGLRKTGSYGALAEITASKEAQKEKDSAGVIRSASSPRLSSSLDNKEKEKDGKGTRLAYVAPTIPRRLASTSDIDEKENRDSSASSIRSGSSYARRKWEEDVKKNSLNEGPTSLNTSYQRSGSFGRRQDDLVSSNVPSTASTVTSSAGLQKTLPASANTTTKSTTGSTSAGVQSSTSNRLWAEDSTEKEKDSVPTAVTVPVAPSVVNAAATTTAMTTATSGTVSSTSEVRERRRSYLTPVRDEESESQRKARSRQARQSRRSTQGVTLTDLQEAEKTIGRSRSTRTREQENEEKEKEEKEKQDKEKQEEKKESETKDDDYRQRYSRTVEEPYHRYRPTSTSTSTSSTSSLSTSTSSLSSSSQLNRPNSLIGITSAYSRSGTKESEREGGKKEEEKEEDKSQPKSIRERRRPREKRRSTGVSFWTQDSDENEQEHQSDSEEGTNKKETQSDSLSRYDTGSLSVSSGDRYDSAQGRSGSQSYLEDRKPYCSRLEKEDSTDFKKLYEQILAENEKLKAQLHDTNMELTDLKLQLEKTTQRQERFADRSLLEMEKRVSGKSQYLLGGKKSSRKKDI
- recognised by digoxigenin-labelled M21 subunit in Far Western blotting: recognised

B5: MBP-M110-(K933-I1004): maltose binding protein fusion of M110-(K933-I1004) (protein)
chain: KLYEQILAENEKLKAQLHDTNMELTDLKLQLEKTTQRQERFADRSLLEMEKRVSGKSQYLLGGKKSSRKKDI
modifications: left off: large carriers
- digoxigenin-labelled probe recognises the full length M21 subunit and M21(M1-L146) in Far Western blotting: recognised
